Source: US20050064507A1, “Determining kinase specificity” (priority 2003, published 2005)

What was measured:
PKC-epsilon = molecular target: T1, PKC-epsilon (Homo sapiens, UniProt Q02156); experiment: In vitro kinase assay: peptide phosphorylation by PKC-epsilon; format: biochemical; conditions: for PKC-epsilon phosphorylation: normalized to best substrate; for phosphorylation by PKC epsilon: peptide concentration 1 uM
T1 construct: purchased Calbiochem
T1 sequence (Q02156 1-737): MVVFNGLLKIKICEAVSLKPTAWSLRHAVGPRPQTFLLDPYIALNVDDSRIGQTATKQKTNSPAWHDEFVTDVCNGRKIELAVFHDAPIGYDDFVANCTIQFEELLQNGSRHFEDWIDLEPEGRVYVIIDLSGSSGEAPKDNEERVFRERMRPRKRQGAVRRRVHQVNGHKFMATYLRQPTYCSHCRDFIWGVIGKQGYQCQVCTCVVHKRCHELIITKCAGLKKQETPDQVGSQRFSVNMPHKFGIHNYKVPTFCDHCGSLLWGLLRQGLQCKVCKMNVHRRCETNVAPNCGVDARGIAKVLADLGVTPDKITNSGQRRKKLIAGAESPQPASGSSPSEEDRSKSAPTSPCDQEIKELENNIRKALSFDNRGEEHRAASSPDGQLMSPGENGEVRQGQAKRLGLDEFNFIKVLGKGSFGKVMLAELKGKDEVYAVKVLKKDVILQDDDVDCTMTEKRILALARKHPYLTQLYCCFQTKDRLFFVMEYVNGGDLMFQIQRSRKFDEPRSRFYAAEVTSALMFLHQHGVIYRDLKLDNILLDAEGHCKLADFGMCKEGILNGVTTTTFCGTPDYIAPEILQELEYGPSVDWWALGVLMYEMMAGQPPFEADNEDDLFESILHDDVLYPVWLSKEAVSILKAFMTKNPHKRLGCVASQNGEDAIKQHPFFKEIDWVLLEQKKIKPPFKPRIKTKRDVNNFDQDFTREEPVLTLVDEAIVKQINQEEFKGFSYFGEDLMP
How it was run: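 Active PKC-epsilon (5-20 ng per well) phosphorylated biotinylated peptides in duplicate at 30° C. for about 10 minutes. The PKC buffer was 100 mM HEPES, 0.05% Triton-X100, 1 mM CaCl2, 20 mM MgCl2, 0.2 mg/ml phosphatidyl serine and PMA 100 ng/ml, with 100 μM ATP including ^32P-gamma ATP. Peptides were captured on streptavidin plates, washed, and counted by scintillation, with stoichiometry kept below 5%.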

PKC-zeta = molecular target: T2, PKC-zeta (Homo sapiens, UniProt Q05513); experiment: In vitro kinase assay: peptide phosphorylation by PKC-zeta; format: biochemical; conditions: for PKC-zeta phosphorylation: normalized to best substrate
T2 construct: purchased Calbiochem
T2 sequence (Q05513 1-592): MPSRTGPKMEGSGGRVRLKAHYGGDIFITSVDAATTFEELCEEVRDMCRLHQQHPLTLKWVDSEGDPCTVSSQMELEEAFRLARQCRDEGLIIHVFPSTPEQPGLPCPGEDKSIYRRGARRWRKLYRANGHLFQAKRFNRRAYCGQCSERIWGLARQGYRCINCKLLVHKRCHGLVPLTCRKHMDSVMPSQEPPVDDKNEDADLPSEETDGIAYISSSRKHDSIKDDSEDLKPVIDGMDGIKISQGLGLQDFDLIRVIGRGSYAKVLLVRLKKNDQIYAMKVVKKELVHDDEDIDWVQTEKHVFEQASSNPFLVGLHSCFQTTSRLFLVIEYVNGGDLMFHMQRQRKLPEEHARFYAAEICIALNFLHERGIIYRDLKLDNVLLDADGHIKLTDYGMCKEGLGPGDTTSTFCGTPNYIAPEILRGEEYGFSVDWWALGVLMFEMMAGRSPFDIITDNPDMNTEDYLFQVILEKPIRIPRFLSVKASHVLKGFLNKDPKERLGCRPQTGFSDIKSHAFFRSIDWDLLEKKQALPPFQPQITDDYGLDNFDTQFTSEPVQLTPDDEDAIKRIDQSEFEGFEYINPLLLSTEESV

| Substance | PKC-epsilon phosphorylation (PKC-epsilon) | PKC-zeta phosphorylation (PKC-zeta) | phosphorylation by PKC epsilon (PKC-epsilon) | phosphorylation by PKC zeta (PKC-zeta; peptide concentration 1 uM) | phosphorylation by PKC zeta (PKC-zeta; peptide concentration 10 uM) |
| --- | --- | --- | --- | --- | --- |
| 81 (KRERKTSSKSSVRKRR) [compound 81] | 59% | 10% |  |  |  |
| 87 (RQGKRKTSIKRDTVNPL) [compound 87] | 31% | 3% |  |  |  |
| 88 (KKPFKLSGLSFKRNRKE) [compound 88] | 44% | 4% |  |  |  |
| 91 (VHYTSKDTLRKRHYWR) [compound 91] | 49% | 12% |  |  |  |
| 97 (KKRSSKKEASMKKVVRP) [compound 97] | 16% | 1% |  |  |  |
| 98 (AGPLRKSSLKKGGRL) [compound 98] | 34% | 4% |  |  |  |
| 148 (RELEQLKAEYLERRASRRRA) [compound 148] |  |  | 33 | 20 | 20 |
| 149 (RVVQSVKHTKRKSSTVMK) [compound 149] |  |  | 27 | 3 | 5 |
| 150 (VDPFYEMLAARKKRISVKKK) [compound 150] |  |  | 20 | 3 | 6 |
| 151 (PQNSLKASNRKKKRTSFKRK) [compound 151] |  |  | 24 | 15 | 28 |
| 152 (DLIEGRKGAQIVKRASLKRG) [compound 152] |  |  | 25 | 4 | 9 |
| 153 (TYLLPDKSRQGKRKTSIKRD) [compound 153] |  |  | 24 | 6 | 13 |
